Laboratory results: the DeepSol protein solubility set

Test: soluble on expression in E. coli; label from the status in PepcDB or PDB records

Sequence | soluble on expression in E. coli
MSAKHPVIAVTGSSGAGTTTTSLAFRKIFAQLNLHAAEVEGDSFHRYTRPEMDMAIRKARDAGRHISYFGPEANDFSLLEHTFIEYGQTGKGQSRKYLHTYDEAVPWNQVPGTFTPWQPLPEPTDVLFYEGLHGGVVTPQHDVARHVDLLVGVVPIVNLEWIQKLIRDTSERGHSREAVMDSVVRSMDDYINYITPQFSRTHINFQRVPTVDTSNPFAAKGIPSLDESFVVIHFRNLEGIDFPWLLAMLQGSFISHINTLVVPGGKMGLAMELIMLPLVQRLMEGKKIE | not soluble
MSLGMHGAAHIVWDWNGTLFHDNAAIIGATNAAFAELGLEPITLERYRALYCVPVPKFYERLIGRLPTDAEWEIMDEIFHRYYAEHRVGCGLTEGAAELLVEWQSAGHSQSILSMYVHDELVPLVRGFGIEPHFIRVDGRTGPSGGSKAEHMVRHIGALAGVAGVDPARTVVIGDAADDAVAALHVGAQAVLYTGGSHSRASLEGVGVPVVDTLAEAVEEAGRLAAEGHHHHHH | soluble
MPGAAAKGSELSERIEGFVETLKRGGGQRSSEDMARETLGLLRRLITDHHWNNAGDLMDLIRREGRRMTAAQPSETTVGNMVRRVLKIIREEYGRLHGRSDESDQQESLHKLLTSGGLSEDFSFHFAPLKANIIEAINELLVELEGTMENIAAQALEHIHSNEVIMTIGYSRTVEAFLKEAARKRKFHVIVAECAPFCQGHEMAVNLSKEGIETTVMTDAAIFAVMSRVNKVIIGTKTILANGSLRAVAGTHTLALAAKHHSTPLIVCAPMFKLSPQFPSEEDSFHKFVAPEEVLPFTEGDILEKVSVHCPVFDYVPPDLITLFISNIGGNAPSYIYRLMSELYHPDDHVL | not soluble
GKSASMAVEEIASRKDISLRDMQISAILKMLFLNKDLNNNDNITTITDDIFNQQEIIWKVLILDIKSTATISSVLRVNDLLKAGITVHSLIKQDRSPLPDVPAIYFVSPTKENIDIIVNDLKSDKYSEFYINFTSSLPRNLLEDLAQQVSITGKSDKIKQVYDQYLDFIVTEPELFSLEISNAYLTLNDPKTTEEEITGLCANIADGLFNTVLTINSIPIIRAAKGGPAEIIAEKLGTKLRDFVINTNSSSTSTLQGNDSLERGVLIILDRNIDFASMFSHSWIYQCMVFDIFKLSRNTVTIPLESKENGTDNTTAKPLATKKYDIEPNDFFWMENSHLPFPEAAENVEAALNTYKEEAAEITRKTGVTNISDLDPNSNNDTVQIQEVVKKLPELTAKKNTIDTHMNIFAALLSQLESKSLDTFFEVEQDPGSTKTRSRFLDILKDGKTNNLEDKLRSFIVLYLTSTTGLPKDFVQNVENYFKENDYDINALKYVYKLREFMQLSNMSLQNKSLEDGSDSAFKPSNLTLSGIYGLTEGKLQGGVGSLISGIKKLLPEKKTIPITNVVDAIMDPLNSSQKNLETTDSYLYIDPKITRGSHTRKPKRQSYNKSLVFVVGGGNYLEYQNLQEWAHSQLHNPKKVMYGSTAITTPAEFLNEISRLGASNSSNNDA | soluble
MSKIVEVSKSPYAKLKTIPVGSVRVNGFMGKYFETLVNVTLPTQYDLLENTGRLDNFRIAAGKMEGSYKTLFPFDDTDVYKWAETVSFALANRKLPELEKILDSVIEEVKAAQDEDGYLGTYLSGDRKKERWTNLAWNHELYNAGHLIQAAVAHRRVTGKNTLFEVAKRFADHIYNTFGPEKKEGAPGHPEVEMALVELYRETGDRKYLDLARYFIYARGKGLASVPRNPGPEYFIDHKPFVELEEITGHAVRALYLCSGATDLYLETGDEKIWQALNRLWENFVTKKMYITGGAGSRHDWESFGEEYELPNRRSYAESCASIANFMWNFRMLLATGDGKFADVMEQVLYNGLLSGISLDGKHYFYFNPLEDYGRTRRQKWFDCACCPPNLARFIVSFPGYMYTTSDDGVQVHLYEKSTARLDFKGSVVEIEQETDYPWSGEVAFTIKTDIEEPFSIYLRLPSWADDFVLRVDGKAVIAKPQNGYVKLSQSWKGKHTVELSLPMKAVFIEAHPFVRDDLGKAAVKRGPVVYCIEQADNPDFHVWTLVLNSESLKEEKGKILDREAVFLKGTGRALDISEWEGKLYRKLSEVREKTVEFTLIPYHMWANREPGAMAVWLKR | soluble
SMHPVAGSNPAFCGPGKPSCLNEDAMRAADQFDLYSSQQNKYSHTVSHKPMVCQRQDPLNETHLQPTSGRNIEIKDELKKKKNLNRSGKRGRPSGTTKSAGYRTSTGRPLGTTKAAGFKTSPGRPLGTTKAAGYKVSPGRPPGSIKALSRLADLGYGCGTAAFPYPMMHSRVVHGLQETSGEVKPPSE | soluble
GHMGITRDVQVPDVRGQSSADAIATLQNRGFKIRTLQKPDSTIPPDHVIGTDPAANTSVSAGDEITVNVSTGPEQREIPDVSTLTYAEAVKKLTAAGFGRFKQANSPSTPELVGKVIGTNPPANQTSAITNVVIIIVGSGPATKDIPDVAGQTVDVAQKNLNVYGFTKFSQASVDSPRPAGEVTGTNPPAGTTVPVDSVIELQVSKGNQFVMPDLSGMFWVDAEPRLRALGWTGMLDKGADVDAGGSQHNRVVYQNPPAGTGVNRDGIITLRFGQ | soluble
MKVALYAGTYVKDKDGAVRSIYQLVSSMIKNGHQVVVWTPDFTPEANASVPVNLTPSVPIPLYPDYKLGFYNAVTERQLDEFAPDIVHISTPDIVGRKFLHYAKRKGLPVGSAYHTDFPSYLSYYRLGFAEPAVWRFLRKFYNACDVTLAPNESVRERLTGKGIERVELWSRGIDKELFDPSRRSAKLRRAWDAEGRTVIIYAGRFVLYKDIEVVMSLYQRFADEGLGDRVRFVMIGSGPEEAQMRARMPEAVFTGYLTGTTLPEAYASGDLFLFPSTTEAFCNVTLEALATGLPAVVSDVGGCQELVERSGGGFVAKAGDVGDFYACCTKLMQDGELFRSMRERGLAFAKDKSWAAVNGKLIDRYLELIAAKARRLEHHHHHH | not soluble
MSLKVWITGAGGMMGSHLAEMLLAAGHDVYATYCRPTIDPSDLQFNGAEVDITDWCSVYDSIATFRPDAVFHLAAQSYPAVSWARPVETLTTNMVGTAIVFEALRRVRPHAKIIVAGSSAEYGFVDPSEVPINERRELRPLHPYGVSKAATDMLAYQYHKSYGMHTVVARIFNCTGPRKVGDALSDFVRRCTWLEHHPEQSAIRVGNLKTKRTIVDVRDLNRALMLMLDKGEAGADYNVGGSIAYEMGDVLKQVIAACKRDDIVPEVDPALLRPTDEKIIYGDCSKLAAITGWQQEICLTQTIADMFDYWRSKSESAEGHHHHHH | soluble
MAVKVAINGFGRIGRLAFRRIQEVEGLEVVAVNDLTDDDMLAHLLKYDTMQGRFTGEVEVVDGGFRVNGKEVKSFSEPDASKLPWKDLNIDVVLECTGFYTDKDKAQAHIEAGAKKVLISAPATGDLKTIVFNTNHQELDGSETVVSGASSTTNSLAPVAKVLNDDFGLVEGLMTTIHAYTGDQNTQDAPHRKGDKRRARAAAENIIPNSTGAAKAIGKVIPEIDGKLDGGAQRVPVATGSLTELTVVLEKQDVTVEQVNEAMKNASNESFGYTEDEIVSSDVVGMTYGSLFDATQTRVMSVGDRQLVKVAAWYDNEMSYTAQLVRTLAYLAELSK | soluble
MGSDKIHHHHHHMAEDQTVLAIDIGGSHVKIGLSTDGEERKVESGKTMTGPEMVAAVTAMAKDMTYDVIAMGYPGPVVHNKPLREPVNLGEGWVGYDYEGAFGRPVRIVNDALMQAIGSYNGGRMLFLGLGTGLGAAMIVENVAQPMEIAHLPYRKGKTYEHYVSEAYREKKGNAKWQKRVQDVVERLSAALEPDEVVIGGGNVERLENLPPKCRRGDNAMAFEGGFRLWKNADLIV | not soluble
DNGLHYSVGFNLSDTRAEITKYDNPTKSLSSPYYEGQIVGDIWGYESSLFQSADEIASAPDQSKLDGGISKVPGDIRFMDIDGNGVVDYGENTVDKPGDMKIIGNNKARYRYGFNISADWKGFDLGIFFQGVGKRDLMLPYTFKWQYGSMWQVSTAVGNDYWREDNAGGWLPVARFNGSQALGQNQTRYLLDASYLRLKSLSFGYTLPVSLTKQWGIQKCRVYFTGENLLTFKHTPEGFDPELDDPYKYPQQKSLALGLNVVF | not soluble
MIDTFERTGPLMEASSYPAWAQQLINDCSPAKARVVEHELYQQMRDAKLSPQIMRQYLIGGWPVVEQFAVYMAKNLTKTRFGRHPGEDMARRWLMRNIRVELNHADYWVNWCAAHDVTLEDLHDQRVAPELHALSHWCWQTSSSDSLAVAMAATNYAIEGATGEWSAVVCSTGVYAEAFAEETRKKSMKWLKMHAQYDDAHPWEALEIICTLVGNKPSLQLQAELRQAVTKSYDYMYLFLERCIQLDKVKSPRGRVAALEM | soluble
MRQWTATHMAKLARKASIAVGKKGTDLPGQIARRVDHNILRKLAKQVDDIVFISGTNGKTTTSNLIGHTLKKNQINIIHNNEGANMAAGITSAFIMQSSKNTNIAIIEIDEGSIPRVLNEVTPSMMVFTNFFRDQMDRFGEIDIMVDNIAKSISNKGIKLLLNADDPFVSRLKIASHSIVYYGMKKFAHDFEQSTMNESKYCPNCGRLLQYDYIHYNQIGHYHCECGFKREEPTYEVSSFDASPFLKMIINQSEFNMKIAGDFNSYNAIAAYTVLRELGLNDDAIRKGFETYTSDNGRMQYFSKNKKEAMINLAKNPAGMNASLSVGEQIDDKKIYVISLNDNAADGRDISWIYDADFEKLATQDIEAIIVSGTRAEELQLRLKLAEVEVPIKVEKDIYKATALTMKYSSFTVAIPNYTSLTPMLEQLNRSFEGGQS | not soluble
MGSDKIHHHHHHMFAHCDVNAFYASCQTAFRPDLKGRPVVVLSNNDGCVIARSAEAKPFVKMGEPYFKQKAAFLRHGVVAFSSNYELYADMSSRVMATLEELTPRCEIYSIDEAFCDVSGVRHCRDLTDFGREIRATVLQRTHLTLGVGIAQTKTLAKLANHAAKQWPRQTGGVVDLSCPQRQRKLMALLPVSEVWGIGRRIGKKLEAMGIGTVLQLAESDIRFIRKHFTVVLERTVRELRGEPCLALEEFAPAKQEIICSRSFGDRITAYEDMRQAICSYAARAAEKLRGEHQYCRFVSAFVKTSPFALNEPYYGNSASLKLLTPTQDSRDIIAAATSCLDAIWKAGHRYQKAGVMLGDFYSQGVAQLNLFDELAPRHNSARLMQVLDQLNAKNGRGALYFAGQGIQQQWQMKREMLSPRYTTRYGDLLRVR | not soluble
MNTMVKLPDSRWPGWRRRLYWWMHEAVEAEEVISLDLETTSLDPRRADILSIGAVLVRRGKLVMGERLELYVEPPPSLDAESIRIHKLRRADLEGQLQLEQALRQVLAFIGDRPLLGYYLSFDVAVLNRHLRQLLDRQLHNPSIEISSLYHRKVSRHFPDAHIDLRFDTLARALDVPVSGRHTALGDAQAVALMFMRLLKGPAPKVIH | not soluble
EVKLQESGPSLVKPSQTLSLTCSVTGDSITSDFWSWIRQFPGNRLEYMGFVQYSGETAYNPSLKSRISITRDTSKNQYYLDLNSVTTEDTAVYYCANWHGDYWGQGTTVTVSSAKTTPPSVYPLAPGSAAQTNSMVTLGCLVKGYFPEPVTVTWNSGSLSSGVHTFPAVLQSDLYTLSSSVTVPSSTWPSETVTCNVAHPASSTKVDKKIVPRDCHHHHHH | soluble
MENRKLAVLIDADNAQSSLIAELLAEVAKYGTAIVKRAYGDWTTTQLKGWKEVLHQYAISPIQQFAYTKGKNSTDSALIIDAMDLLYTGNFDGFCLVSSDSDFTRLATRLREGGLTVIGLGEQSKTPRPFIAACDKFVFTEILRPAPPAKPKPETAATADKPKARSSRTRAKAAPHKEKHPLQDMFTSAIEAVARDSGWAELSAVGSYLAKNDPSFDPRNWGHGRLSQMVKKLDFLTVQESRNGSKLHSEIRLRHDGEAAVAEPAAPVETPQPSPSEEAAPPPRKKRSPRKKISPAGLEHHHHHH | soluble
